Measurements published in publication PMC8561747 (Cell host & microbe, 2021).

Target: the molecule itself
Test: SEC

B1: FMNL1_(1–385) (domain or fragment, human, UniProt O95466 1-385, looked up)
chain: MGNAAGSAEQPAGPAAPPPKQPAPPKQPMPAAGELEERFNRALNCMNLPPDKVQLLSQYDNEKKWELICDQERFQVKNPPAAYIQKLKSYVDTGGVSRKVAADWMSNLGFKRRVQESTQVLRELETSLRTNHIGWVQEFLNEENRGLDVLLEYLAFAQCSVTYDMESTDNGASNSEKNKPLEQSVEDLSKGPPSSVPKSRHLTIKLTPAHSRKALRNSRIVSQKDDVHVCIMCLRAIMNYQSGFSLVMNHPACVNEIALSLNNKNPRTKALVLELLAAVCLVRGGHDIILAAFDNFKEVCGEQHRFEKLMEYFRNEDSNIDFMVACMQFINIVVHSVENMNFRVFLQYEFTHLGLDLYLERLRLTESDKLQVQIQAYLDNIFDVG
  binding result: binds
